Source: paper PMC10279719 (Nature Communications, 2023)

Key:
CrkII^FL monomer = target: T1, CrkII^FL monomer (Homo sapiens, UniProt P46108); experiment: SPR, CrkII FL monomer binding to immobilised PEAK proteins; conditions: interactor as analyte over biotinylated PEAK protein (biotin CAPture); Biacore 8K+, HBS-TP with 500 mM NaCl, 20 °C; steady-state fit; mean ± SD (N = 2)
T1 construct: full length CrkII (CrkII^FL; UniProt P46108-1, residues 1–330); 8-His tag with TEV protease cleavage site (N); made in house; host or cells: E. coli C41 (DE3)
T1 sequence (P46108 whole entry, the tested form may be a part): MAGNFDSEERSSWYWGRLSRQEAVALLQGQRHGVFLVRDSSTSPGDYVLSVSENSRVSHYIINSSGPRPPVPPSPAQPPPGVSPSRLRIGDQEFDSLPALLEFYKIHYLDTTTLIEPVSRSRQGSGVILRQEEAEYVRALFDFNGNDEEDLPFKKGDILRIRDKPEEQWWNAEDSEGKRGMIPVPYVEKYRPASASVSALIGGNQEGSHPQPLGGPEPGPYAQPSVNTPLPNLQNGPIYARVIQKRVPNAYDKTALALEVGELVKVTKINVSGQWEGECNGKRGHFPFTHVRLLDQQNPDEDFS
Description: (§1) SPR binding studies of PEAK PRM peptides to CrkII^NSH3 were performed using a Biacore S200 Instrument (Cytiva). Purified CrkII^NSH3 was diluted to 5 µg ml^−1 in 10 mM sodium acetate pH 4.0 and amine coupled at 25 °C to a Series S CM5 sensor chip, in HBS-N running buffer (20 mM HEPES pH 7.4, 150 mM NaCl) to a final immobilization level of 1100–1400 response units (RU), followed by surface deactivation using 1 M ethanolamine. A blank activation/deactivation was used for the reference surface. Peptide binding studies were performed at 20 °C in HBS-TP running buffer (20 mM HEPES pH 7.4, 150 mM NaCl, 1 mM TCEP, 0.005% (v/v) Tween-P20). […] Peptide stocks were further diluted to in running buffer to 10 or 20 µM and prepared as a 11-point concentration series (2-fold serial dilution, […] for PEAK PRM peptides, or 20 µM–20 nM for PEAK tandem motif peptides). Samples were injected in a multi-cycle run (flow rate 30 µl min^−1, contact time of 60 s, dissociation 120 s) without regeneration. Sensorgrams were double referenced, and steady-state binding data fitted using a 1:1 binding model using Biacore S200 Evaluation Software (Cytiva, v. 1.1).
(§2) SPR binding studies of PEAK proteins to full length CrkII/Grb2 and sub-domains were performed using a Biacore 8K+ Instrument (Cytiva) and analyzed using Biacore Insight Evaluation Software (v. 3.0.12.15655). […] Binding studies and steady-state data analysis were performed as described for CrkII^NSH3 with the inclusion of an additional surface regeneration step (60 s injection of 1 M NaCl) between cycles.

14-3-3ɣ = experiment: SPR, 14-3-3ɣ binding to immobilised PEAK proteins; parameters: species or system human; conditions: 14-3-3ɣ analyte 0.46–1000 nM, multi-cycle, over immobilised biotinylated PEAK protein; Biacore 8K+, 20 °C; KD only an estimate (bivalent analyte model); N = 3
Description: PEAK proteins and adapters proteins (full length or individual domains) were biotinylated using EZ-Link™ NHS-PEG4-Biotin (Thermo Fisher) at a 1:1 molar ratio (100 µM) for 1 h at room temperature, then excess biotin was removed by buffer exchange using a Zeba™ Spin Desalting Column (Thermo Fisher) into HBS-T buffer (20 mM HEPES pH 7.4, 150 mM NaCl, 1 mM TCEP).
SPR binding studies of PEAK proteins to full length CrkII/Grb2 and sub-domains were performed using a Biacore 8K+ Instrument (Cytiva) and analyzed using Biacore Insight Evaluation Software (v. 3.0.12.15655). […] Biotinylated PEAK proteins (with or without Src phosphorylation; 500 nM in HBS-TP) were immobilized using a biotin CAPture kit (Cytiva) in HBS-TP running buffer at 20 °C. Binding studies and steady-state data analysis were performed as described for CrkII^NSH3 with the inclusion of an additional surface regeneration step (60 s injection of 1 M NaCl) between cycles. For Grb2^FL, Grb2^SH2, CrkII^SH2, CrkII^FL monomer and CrkII^FL dimer, to reduce nonspecific interactions the HBS-TP running buffer was supplemented with additional NaCl to a final concentration of 500 mM.
Binding studies for 14-3-3ɣ were undertaken in the same way in multi cycle mode (8 point, 3-fold serial dilution series, 0.46–1000 nM, 60 s contact time, 300 s dissociation).

CrkII^FL dimer = target: T2, CrkII^FL dimer (Homo sapiens, UniProt P46108); experiment: SPR, CrkII FL dimer binding to immobilised PEAK proteins; conditions: interactor as analyte over biotinylated PEAK protein (biotin CAPture); Biacore 8K+, HBS-TP with 500 mM NaCl, 20 °C; steady-state fit; mean ± SD (N = 2)
T2 construct: full length CrkII (CrkII^FL; UniProt P46108-1, residues 1–330); 8-His tag with TEV protease cleavage site (N); made in house; host or cells: E. coli C41 (DE3)
T2 sequence (P46108 whole entry, the tested form may be a part): as above
Description: as §1, §2

Grb2^FL = target: T3, Grb2^FL (Homo sapiens, UniProt P62993); experiment: SPR, Grb2 FL binding to immobilised PEAK proteins; conditions: interactor as analyte over biotinylated PEAK protein (biotin CAPture); Biacore 8K+, HBS-TP with 500 mM NaCl, 20 °C; steady-state fit; mean ± SD (N = 2) or S.E.M. (N = 3)
T3 construct: Grb2^FL; UniProt P62993-1, residues 1–217; 8-His tag with TEV protease cleavage site (N); made in house; host or cells: E. coli C41 (DE3)
Description: as §1
(§3) SPR binding studies of PEAK proteins to full length CrkII/Grb2 and sub-domains were performed using a Biacore 8K+ Instrument (Cytiva) and analyzed using Biacore Insight Evaluation Software (v. 3.0.12.15655). […]

Grb2^SH2 = Grb2^SH2 (Homo sapiens, UniProt P62993); experiment: SPR, Grb2 SH2 binding to immobilised PEAK proteins; conditions: interactor as analyte over biotinylated PEAK protein (biotin CAPture); Biacore 8K+, HBS-TP with 500 mM NaCl, 20 °C; steady-state fit; mean ± S.E.M. (N = 3)
Grb2^SH2, sequence (P62993 60-152 limits assumed): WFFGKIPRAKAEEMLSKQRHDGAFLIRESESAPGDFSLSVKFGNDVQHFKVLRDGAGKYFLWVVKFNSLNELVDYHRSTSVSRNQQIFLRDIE
Description: as §1, §3

CrkII^NSH3 = target: T4, CrkII^NSH3 (Homo sapiens, UniProt P46108); experiment: SPR, CrkII NSH3 binding to immobilised PEAK proteins; conditions: read-out: CrkII NSH3 SPR KD; interactor as analyte over biotinylated PEAK protein captured with biotin CAPture kit; Biacore 8K+, HBS-TP, 20 °C; steady-state fit; mean ± SD (N = 2); read-out: CrkII-SH2 SPR KD
T4 construct: CrkII^NSH3; UniProt P46108-1, residues 134–191; 8-His tag with TEV protease cleavage site (N); made in house; host or cells: E. coli C41 (DE3)
T4 sequence (P46108 134-191): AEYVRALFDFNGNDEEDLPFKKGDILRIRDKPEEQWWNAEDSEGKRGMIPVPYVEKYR
Description: as §1, §2

CrkII^SH2 = target: T5, CrkII^SH2 (Homo sapiens, UniProt P46108); experiment: SPR, CrkII SH2 binding to immobilised PEAK proteins; conditions: interactor as analyte over biotinylated PEAK protein (biotin CAPture); Biacore 8K+, HBS-TP with 500 mM NaCl, 20 °C; steady-state fit; mean ± S.E.M. (N = 3)
T5 construct: CrkII^SH2; UniProt P46108-1, residues 6–120; 8-His tag with TEV protease cleavage site (N); made in house; host or cells: E. coli C41 (DE3)
T5 sequence (P46108 6-120): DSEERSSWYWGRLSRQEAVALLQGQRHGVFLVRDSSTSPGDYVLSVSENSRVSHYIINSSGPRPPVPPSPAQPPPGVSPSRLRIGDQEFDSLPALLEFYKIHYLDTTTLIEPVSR
Description: as §1, §3

Molecule | Kd (CrkII^FL monomer) | SPR KD, 14-3-3ɣ (14-3-3ɣ) | Kd (CrkII^FL dimer) | Kd (Grb2^FL) | SPR KD, Grb2 SH2 (Grb2^SH2) | Kd (CrkII^NSH3) | SPR KD, CrkII-SH2 (CrkII^SH2)
PEAK1-IDR1: recombinant human PEAK1 residues 1082–1746, insect cell expressed (protein, left off: His tag, N-terminal, state not stated, recombinant human PEAK1 residues 1082–1746, insect cell expressed) LPELEREDGKEDISDPMDPNPCSATYSNLGQSRAAMIPPKQPRQPKGAVDDAIAFGGKTDQEAPNASQPTPPPLPKKMIIRANTEPISKDLQKSMESSLCVMANPTYDIDPNWDASSAGSSISYELKGLDIESYDSLERPLRKERPVPSAANSISSLTTLSIKDRFSNSMESLSSRRGPSCRQGRGIQKPQRQALYRGLENREEVVGKIRSLHTDALKKLAVKCEDLFMAGQKDQLRFGVDSWSDFRLTSDKPCCEAGDAVYYTASYAKDPLNNYAVKICKSKAKESQQYYHSLAVRQSLAVHFNIQQDCGHFLAEVPNRLLPWEDPDDPEKDEDDMEETEEDAKGETDGKNPKPCSEAASSQKENQGVMSKKQRSHVVVITREVPCLTVADFVRDSLAQHGKSPDLYERQVCLLLLQLCSGLEHLKPYHVTHCDLRLENLLLVHYQPGGTAQGFGPAEPSPTSSYPTRLIVSNFSQAKQKSHLVDPEILRDQSRLAPEIITATQYKKCDEFQTGILIYEMLHLPNPFDENPELKEREYTRADLPRIPFRSPYSRGLQQLASCLLNPNPSERILISDAKGILQCLLWGPREDLFQTFTACPSLVQRNTLLQNWLDIKRTLLMIKFAEKSLDREGGISLEDWLCAQYLAFATTDSLSCIVKILQHR | 9.2 µM | No binding | 2.03 µM | > 50 µM | No binding | 3.7 µM | No binding
PEAK1-IDR1 (+ Src phosphorylation): PEAK1 residues 1082–1746 phosphorylated with recombinant Src kinase (protein, phosphotyrosine at Y1107 (by Src in vitro, shown by MS/MS); other Src sites not stated; biotin (EZ-Link NHS-PEG4-Biotin, 1:1 molar ratio); left off: His-tag, N-terminal, state not stated, PEAK1 residues 1082–1746 phosphorylated with recombinant Src kinase) LPELEREDGKEDISDPMDPNPCSATYSNLGQSRAAMIPPKQPRQPKGAVDDAIAFGGKTDQEAPNASQPTPPPLPKKMIIRANTEPISKDLQKSMESSLCVMANPTYDIDPNWDASSAGSSISYELKGLDIESYDSLERPLRKERPVPSAANSISSLTTLSIKDRFSNSMESLSSRRGPSCRQGRGIQKPQRQALYRGLENREEVVGKIRSLHTDALKKLAVKCEDLFMAGQKDQLRFGVDSWSDFRLTSDKPCCEAGDAVYYTASYAKDPLNNYAVKICKSKAKESQQYYHSLAVRQSLAVHFNIQQDCGHFLAEVPNRLLPWEDPDDPEKDEDDMEETEEDAKGETDGKNPKPCSEAASSQKENQGVMSKKQRSHVVVITREVPCLTVADFVRDSLAQHGKSPDLYERQVCLLLLQLCSGLEHLKPYHVTHCDLRLENLLLVHYQPGGTAQGFGPAEPSPTSSYPTRLIVSNFSQAKQKSHLVDPEILRDQSRLAPEIITATQYKKCDEFQTGILIYEMLHLPNPFDENPELKEREYTRADLPRIPFRSPYSRGLQQLASCLLNPNPSERILISDAKGILQCLLWGPREDLFQTFTACPSLVQRNTLLQNWLDIKRTLLMIKFAEKSLDREGGISLEDWLCAQYLAFATTDSLSCIVKILQHR | 1.5 µM | No binding | 1.49 µM | – | – | 4.11 µM | –

Now from value to molecule:

Kd (CrkII^FL monomer) | SPR KD, 14-3-3ɣ (14-3-3ɣ) | Kd (CrkII^FL dimer) | Kd (Grb2^FL) | SPR KD, Grb2 SH2 (Grb2^SH2) | Kd (CrkII^NSH3) | SPR KD, CrkII-SH2 (CrkII^SH2) | Molecule
13.7 µM | No binding | 4.22 µM | – | – | 4.79 µM | No binding | PEAK2-IDR1: recombinant human PEAK2 residues 802–1406, insect cell expressed (protein, phosphorylated at the tandem site 14-3-3 motif (RAASSP) by LC MS/MS; left off: His tag, N-terminal, state not stated, recombinant human PEAK2 residues 802–1406, insect cell expressed) EDVSPSGPQQPPPLPQKKIVSRAASSPDGFFWTQGSPKPGTASPKLNLSHSETNVHDESHFSYSLSPGNRHHPVFSSSDPLEKAFKGSGHWLPAAGLAGNRGGCGSPGLQCKGAPSASSSQLSVSSQASTGSTQLQLHGLLSNISSKEGTYAKLGGLYTQSLARLVAKCEDLFMGGQKKELHFNENNWSLFKLTCNKPCCDSGDAIYYCATCSEDPGSTYAVKICKAPEPKTVSYCSPSVPVHFNIQQDCGHFVASVPSSMLSSPDAPKDPVPALPTHPPAQEQDCVVVITREVPHQTASDFVRDSAASHQAEPEAYERRVCFLLLQLCNGLEHLKEHGIIHRDLCLENLLLVHCTLQAGPGPAPAPAPAPAPAAAAPPCSSAAPPAGGTLSPAAGPASPEGPREKQLPRLIISNFLKAKQKPGGTPNLQQKKSQARLAPEIVSASQYRKFDEFQTGILIYELLHQPNPFEVRAQLRERDYRQEDLPPLPALSLYSPGLQQLAHLLLEADPIKRIRIGEAKRVLQCLLWGPRRELVQQPGTSEEALCGTLHNWIDMKRALMMMKFAEKAVDRRRGVELEDWLCCQYLASAEPGALLQSLKLLQLL
2.12 µM | No binding | 1.38 µM | – | – | 5.2 µM | – | PEAK2-IDR1 (+ Src phosphorylation): PEAK2 residues 802–1406 phosphorylated with recombinant Src kinase (protein, phosphorylated with Src kinase, sites not stated; phosphorylation of the tandem site 14-3-3 motif (RAASSP) found by proteomic analysis; biotin (EZ-Link NHS-PEG4-Biotin, 1:1 molar ratio); left off: His, PEAK2 residues 802–1406 phosphorylated with recombinant Src kinase) EDVSPSGPQQPPPLPQKKIVSRAASSPDGFFWTQGSPKPGTASPKLNLSHSETNVHDESHFSYSLSPGNRHHPVFSSSDPLEKAFKGSGHWLPAAGLAGNRGGCGSPGLQCKGAPSASSSQLSVSSQASTGSTQLQLHGLLSNISSKEGTYAKLGGLYTQSLARLVAKCEDLFMGGQKKELHFNENNWSLFKLTCNKPCCDSGDAIYYCATCSEDPGSTYAVKICKAPEPKTVSYCSPSVPVHFNIQQDCGHFVASVPSSMLSSPDAPKDPVPALPTHPPAQEQDCVVVITREVPHQTASDFVRDSAASHQAEPEAYERRVCFLLLQLCNGLEHLKEHGIIHRDLCLENLLLVHCTLQAGPGPAPAPAPAPAPAAAAPPCSSAAPPAGGTLSPAAGPASPEGPREKQLPRLIISNFLKAKQKPGGTPNLQQKKSQARLAPEIVSASQYRKFDEFQTGILIYELLHQPNPFEVRAQLRERDYRQEDLPPLPALSLYSPGLQQLAHLLLEADPIKRIRIGEAKRVLQCLLWGPRRELVQQPGTSEEALCGTLHNWIDMKRALMMMKFAEKAVDRRRGVELEDWLCCQYLASAEPGALLQSLKLLQLL
